Target: the molecule itself
Assay: SEC

B1: VanTG catalytic (C-terminal cytoplasmic) domain, residues 339 to 712, as used in solution (size excl (domain or fragment)
chain: TADTDRAYLEINLNNLEHNVNTLQKAMSPKCELMAVVKAEAYGHGMYEVTTYFEPIGVFYLAVATIDEGIRLRKYGIFSEILILGYTSPSRAKELCKFELTQTLIDYRYLLLLNKQGYDIKAHIKIDTGMHRLGFSTEDKDKILAAFFLKHIKVAGIFTHLCAADSLEEKEVAFTNKPIGSFYKVLDWPKSSGLNIPKVNIQTSYGLWNIQSWNVIYQSGVALYGVLRSTNDKTKLETDLRACSFLKAKVVLIRKIKQGGSVGYSRAFTATRDSLIAILPIGYADGFPRNLSCGNSYVLIGGRQAPIVGKICMDQLAVDVTDIPNVKTGSIATLIGKDGKEEITAPMVAESAESITNELLSRMEHRLNIIRRA
For B1, which “stoichiometry N” value is on record?
The value was 2.

— PMC4542195 (mBio, 2015)
